Data taken from PMC3720919, “Mcm10 Self-Association Is Mediated by an N-Terminal Coiled-Coil Domain” (PLoS ONE, 2013).
“And” between values parts separate entries of the source, which are not always exact repeats. Identical values can stand only once.

What was measured:
[1] = target: the molecule itself; assay: native gel or EMSA; native gel electrophoresis (4-16% Bis-Tris) of the NTD
[2] = target: the molecule itself; assay: SEC-MALS; Superose6 10/300 GL, 0.4 ml/min, 25 mM Tris pH 7.5, 150 mM NaCl, 2% glycerol, 2 mM BME
[3] = target: the molecule itself; assay: crystal structure; MBP-CC fusions at 50 mg/mL, sitting drop vapor diffusion, 16°C, sodium acetate pH 4.8; molecular replacement with MBPX(E)
[4] = target: the molecule itself; assay: AUC; sedimentation velocity, 42,000 rpm, 20°C; 0.6 mg/ml in PBS pH 7.4, 150 mM NaCl, 0.3 mM TCEP
[5] = target: the molecule itself; assay: AUC; sedimentation velocity, 42,000 rpm, 20°C; 0.6 mg/ml in 25 mM sodium acetate pH 4.7, 150 mM NaCl, 0.3 mM TCEP

B1: Mcm10-NTD (aa 1-145) L104A/L108A (2A mutant) (domain or fragment, Xenopus laevis, UniProt Q5EAW4 1-145, looked up)
chain: MEVDADLELLTSLLEENEAAERNGVVSHEASSELDEFDELFDGDEDGSYHGSDNGTEEQTIGGVEEDFTTLFGDIDDIKEEEAAASDTKKQSSSVCQEKSKDEAEDEARKMQAQMKKLQEQLQKTALAKTSSPGNPKKSPENKMV
notes: Mcm10, Xenopus laevis, residues 1-145 with L104A/L108A; also called NTD 2A
- binding result [1]: binds

B2: Full-length Xenopus laevis Mcm10 (natural protein, UniProt Q5EAW4 1-860, looked up)
chain: MEVDADLELLTSLLEENEAAERNGVVSHEASSELDEFDELFDGDEDGSYHGSDNGTEEQTIGGVEEDFTTLFGDIDDIKEEEAAASDTKKQSSSVCQEKSKDELEDELRKMQAQMKKLQEQLQKTALAKTSSPGNPKKSPENKMVQSGKTSRTSPLIERKKTDSNTVAPQLTSPTVPKAKLPDAPKRKQNLSDKSPVQKKMASFLSPPEKSSARPGQSTATQPITNTLKSPVGQQYHVEKFSGLRIRKPRVSSSEMERKMNGRKLIRLAQLQNKIATEKLEEEDWVTFGVIVKKITPQSSNNGKTFSIWRLNDLKDLDKYISLFLFGDVHKEHWKTDQGTVIGLLNANPMKPKEGTDEVCLSVDNPQKVLLMGDAVDLGTCKARKKNGDPCTQMVNLNDCEYCQYHVQAQYKKVSSKRADLQSSYSGHVPKKMARGANGLRERLCQGGFHYGGVSSMAYAATLGSTTAPKKTVQSTLSNMVVRGAEAIALEARQKIAAAKNVVQTDEFKELMTLPTPGALNLKKHLSGVSPQANCGKEGQPIQSISASTLLKQQKQQMLNARKKRAEESQKRFLESTEKSEKSSTLTSSACSVFQSPKQGAEFPNAQKMATPKLGRGFAEGDDVLFFDISPPPAPKLSTSAEAKKLLAIQKLQAKGQTLAKTDPNSIKRKRGSSSEELVAQRVASHASTSPKSPDENEPAIKKHRDQLAYLESEEFQKILNAKSKHTGILKEAEVEIQEHYFDPLVKKEQLEEKMQSIREQSCRVVTCKTCKYTHFKPKETCVSENHDFHWHNGVKRFFKCPCGNRTISLDRLPKKHCSTCGLFKWERVGMLKEKTGPKLGGETLLPRGEEHGKFLNSLK
notes: Minichromosome maintenance protein 10 (Mcm10), Xenopus laevis, full length (860 residues by the construct 230-860; calculated mass 95.4 kDa); also called xMcm10; full-length Mcm10; source: Hi-5 insect cells (baculovirus, Bac-to-Bac), purified (Ni-NTA, Source Q, Superose6 gel filtration)
- stoichiometry N [2]: ~2 Mcm10 subunits and ~3.4 Mcm10 subunits

B3: MBP-CC 95-124 (xMcm10 residues 95-124 fused to maltose binding protein) (domain or fragment, Xenopus laevis, UniProt Q5EAW4 95-124, looked up)
chain: VCQEKSKDELEDELRKMQAQMKKLQEQLQK
notes: Mcm10, Xenopus laevis, coiled-coil region, residues 95-124 (95-122 in the final model); Trimer in the crystal; dimer in sedimentation velocity; MBPX(E) as in PDB 3H4Z; also called xMcm10-CC^95–124; wild-type CC; source: E. coli C41, purified (amylose resin, Superdex S200); not shown: MBP (mutant form MBPX(E) residues 1-367; uncleavable linker AAAMG), N-terminal, kept
- stoichiometry N [3]: 3

B4: MBP-CC 95-132 (xMcm10 residues 95-132 fused to maltose binding protein) (domain or fragment, Xenopus laevis, UniProt Q5EAW4 95-132, looked up)
chain: VCQEKSKDELEDELRKMQAQMKKLQEQLQKTALAKTSS
notes: Mcm10, Xenopus laevis, coiled-coil region, residues 95-132; MBPX(E) as in PDB 3H4Z (search model); the linker in the 95-124 model is AAAMG; Calculated mass 45.1 kDa; source: E. coli C41, purified (amylose resin, Superdex S200); not shown: MBP (mutant form MBPX(E) from pMALX(E); short uncleavable linker), N-terminal, kept
- stoichiometry N [4]: 1.7 MBP-CC subunits
- stoichiometry N [5]: 3 and 2
